This is an account of results in US20260115256A1 (HANGZHOU SCIWIND BIOSCIENCES, published 2026).

The test addresses T1, human amylin receptor (AMY3) on CHO-K1/Ga15/AMY3 cells (human, UniProt P30988 25-474; O60896 24-148).
T1 sequence (looked up) 1: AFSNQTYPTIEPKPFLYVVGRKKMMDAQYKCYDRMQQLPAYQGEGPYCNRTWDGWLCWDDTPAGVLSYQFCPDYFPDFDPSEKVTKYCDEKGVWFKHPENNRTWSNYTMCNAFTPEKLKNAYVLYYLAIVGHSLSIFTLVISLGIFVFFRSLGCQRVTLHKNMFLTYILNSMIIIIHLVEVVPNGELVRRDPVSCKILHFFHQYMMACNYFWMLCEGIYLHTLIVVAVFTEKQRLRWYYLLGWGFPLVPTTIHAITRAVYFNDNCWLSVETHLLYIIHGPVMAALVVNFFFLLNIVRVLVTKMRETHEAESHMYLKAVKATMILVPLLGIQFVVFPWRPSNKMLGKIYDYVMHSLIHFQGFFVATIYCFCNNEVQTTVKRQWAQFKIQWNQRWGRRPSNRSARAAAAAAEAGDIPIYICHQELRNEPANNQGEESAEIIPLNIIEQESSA
T1 sequence (looked up) 2: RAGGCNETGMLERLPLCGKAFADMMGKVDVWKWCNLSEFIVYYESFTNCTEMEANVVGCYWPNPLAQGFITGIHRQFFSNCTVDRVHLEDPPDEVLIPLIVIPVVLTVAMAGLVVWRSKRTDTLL
Briefly: cell-based or functional assay.

*1 amine or outer side, *2 acyl side, *3 side chain or, on linkers, in order; H or OH if unused. Bridges are numbered along the chain shown (N, C = ends). Primed or numbered codes have the meaning given here. Where no end group is shown, it is not given here. Side-chain parts run from the residue outwards. [ ]: non-standard residue; d: D form. The star is where a group is joined. C20 diacid = O=C(O)CCCCCCCCCCCCCCCCCCC(=O)*; γGlu = O=C(O)[C@H](CCC(=O)[*:2])N[*:1]; βAsp = O=C(O)[C@H](CC(=O)[*:2])N[*:1]; Aad = N[C@@H](CCCC(=O)O)C(=O)O; Orn = NCCC[C@H](N)C(=O)O; Dab = NCC[C@H](N)C(=O)O; Inp′ = not defined here; Dap = NC[C@H](N)C(=O)O; AEEA = NCCOCCOCC(=O)O

Consider {C20 diacid-AEEA-AEEA-Inp′}-KCNTATCATQRLADFLRHSSNNLKPILPPTNVGSNTP-NH2 (disulfide 2-7 (inferred)) [PD192], for which the “EC50, CRE-luciferase assay” value was 87 pM. Take {C20 diacid-βAsp-AEEA-AEEA}-KCNTATCATQRLADFLRHSSNNLKPILPPTNVGSNTP-NH2 (disulfide 2-7 (inferred)) [PD195]: the “EC50, CRE-luciferase assay” value was 25 pM. For {C20 diacid-γGlu}-RCNTATCATQRLADFLRHSSNNLRPILPPTNVGSNTP-NH2 (disulfide 2-7 (inferred)) [PD197] the value was 25 pM.

As for {C20 diacid-βAsp-AEEA-AEEA}-KCNTATCATQRLADFLRHSSNNLKPILPPTNVGSNTP-NH2 (disulfide 2-7 (inferred)) [PD196], the “EC50, CRE-luciferase assay” value was 64 pM. Consider RCNTATCATQRLAEFL[Orn]HSSNNLK([γGlu-C20 diacid])PILPPTNVGSNTP-NH2 (disulfide 2-7 (inferred)) [PD046], for which the “EC50, CRE-luciferase assay” value worked out at 1680 pM.

Regarding {C20 diacid}-D[AEEA][AEEA]KCNTATCATQRLADFLRHSSNNLKPILPPTNVGSNTP-NH2 (disulfide 5-10 (inferred)) [PD193], the “EC50, CRE-luciferase assay” value amounted to 74 pM. With RCNTATCATQRLADFLRHSSNNLK([γGlu-C20 diacid])PILPPTNVGSNTP-NH2 (disulfide 2-7 (inferred)) [PD048], the “EC50, CRE-luciferase assay” value was determined as 47 pM. For RCNTATCATQRLA[Dap]FLRHSSNNLK([γGlu-C20 diacid])PILPPTNVGSNTP-NH2 (disulfide 2-7 (inferred)) [PD045] the value was 364 pM; for RCNTATCATQRLAEFLRHSSNNLK([γGlu-C20 diacid])PILPPTNVGSNTP-NH2 (disulfide 2-7 (inferred)) [PD047], 73 pM; for RCNTATCATQRLA[Dab]FLRHSSNNLK([γGlu-C20 diacid])PILPPTNVGSNTP-NH2 (disulfide 2-7 (inferred)) [PD044], 2620 pM. Consider RCNTATCATQRLA[Aad]FLRHSSNNLK([γGlu-C20 diacid])PILPPTNVGSNTP-NH2 (disulfide 2-7 (inferred)) [PD043], for which the “EC50, CRE-luciferase assay” value came to 1130 pM.

For CNTATCATQRLAEFLRHSSNNLK([γGlu-C20 diacid])PILPPTNVGSNTP-NH2 (disulfide 1-6 (inferred)) [PD049], the “EC50, CRE-luciferase assay” value came out at 215 pM. For {C20 diacid-Inp′-AEEA-AEEA}-KCNTATCATQRLADFLRHSSNNLKPILPPTNVGSNTP-NH2 (disulfide 2-7 (inferred)) [PD191] the value was 61 pM. For {C20 diacid-γGlu}-KGGGGRCNTATCATQRLADFLRHSSNNLRPILPPTNVGSNTP-NH2 (disulfide 7-12 (inferred)) [PD198] the value was 29 pM.

As to {C20 diacid-AEEA-AEEA}-DKCNTATCATQRLADFLRHSSNNLKPILPPTNVGSNTP-NH2 (disulfide 3-8 (inferred)) [PD194], the “EC50, CRE-luciferase assay” value is 74 pM.
